The text below walks through data of patent US20250172552A1 (ANN AND ROBERT H LURIE CHILDREN S HOSPITAL OF CHICAGO, published 2025).

Where two headings read alike, the source gives them in different places.

Experiment [1] has as its target T1, KDpeptide3.
T1 construct: Synthetic peptide (Anaspec) coated on ELISA plates at 800 ng per well; also the base peptide of substitution scans; also called Kdpep3; KD3
T1 peptide: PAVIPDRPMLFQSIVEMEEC
Kind of experiment: ELISA on coated synthetic peptide.

Experiment [2] concerns the target T2, KDpeptide2.
T2 construct: Synthetic peptide (Anaspec) coated on ELISA plates at 800 ng per well
T2 peptide: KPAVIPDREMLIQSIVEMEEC
Kind of experiment: ELISA on coated synthetic peptides, direct comparison. For orientation: ELISA stands for enzyme-linked immunosorbent assay.

The target in experiment [3] is T2, KDpeptide2. Briefly: ELISA on coated synthetic peptide.
Experiment [4] addresses T1, KDpeptide3. Kind of experiment: ELISA on coated synthetic peptide.

B1: KD11-2E4 (antibody, V domains shown)
VH: EVQLVESGGGVVQPGESLRLSCAASGVTFSSYWMHWVRQVPGKGLVWVARINIDGTSTTYADCVKGRFTISRDNAKNTLYLQMSSLRAEDTAVYYCATERGLLSGGRWHSSHFDYWGQGTLVTVS
VL: DIQMTQSPSTLSASVGDRVTITCRASQSISSWLAWYQQKPGKAPKVLIYKTSSLESGVPSRFSGSGSGTEFTLTISSLQPDDFATYYCQQYDSSSLTWTFGQGTKVEIK
On to B1, for which the binding result in experiment [1] and in experiment [2] was “binds” in each case.

B2: KD1-2B1 (antibody, V domains shown)
VH: EVQLVESGGGLVQPGGSLRLSCAASGFTFSSYWMHWVRQAPGKGLVWVSRINNDGSSTGYADSVEGRFTISRDNAKNTLYLQINSLRAEDTAVYYCARQDGHYYYSMDVWGQGTTVTV
VL: QSALTQPRSVSGSPGQSVTISCTGTSSDVGGYNYVSWYQQHPGKAPKLMIYDVSERPSGVPARFSGSKSGNTASLTISGLQAEDEADYYCCSYAGNFRWVFGGGTKLTVL
Consider B2, for which the binding result in experiment [1] and in experiment [2] was “binds” throughout.

B3: KD2-1D10 (antibody, V domains shown)
VH: EVQLVESGGGLIHPGGSLRLSCAASGFTFSSYWMHWVRQAPGKGLVWVSHIKSDGSNTIYADSVKGRFTISRDNAKNTLYLQMNSLRAEDTAVYYCGRGRSLTPRSAIDYWGQGTLVTV
VL: QSALTQPPSASGSPGQSVTITCTGTSSDVGGYNYVSWYQQHPGKAPKLMIYEVSKRPSGVPDRFSGSKSGNTASLTVSGLQAEDEADYHCSSFAGDNNSPVFGGGTKLTVL
In the case of B3, the binding result in experiment [1] and in experiment [2] was “binds” in each case.

B4: KD9-2A4 (antibody, V domains shown)
VH: LVESGGGLVQPGGSLRLSCAASGFTFSSYAMHWVRQAPGKGLEFASAISSDGGTTYYANSVKGRFTISRDNSKNTLYLQMGSLRDEDMAVYYCARDDLSTSWDLDYWGQGTLVTV
VL: QSALTQPASVSGSPGQSITISCTGTSSDVGGYNYVSWYQQHPGKAPKLMIYDVSNRPSGVSNRFSGSKSGNTASLTISGLQAEDEADYYCSSYTISSTNVFGTGTKVTVL
In the case of B4, the binding result in experiment [3] and in experiment [4] was “no binding” in each case.

B5: KD7-2H5 (antibody, V domains shown)
VH: EVQLVESGGGLVQPGGSLRLSCAASGFTFSSYWMHWVRQAPGKGLVWVSRINSDGSSTSYADSVKGRFAISRDNAKNTLYLQMNSLRAEDTAVYYCARALGGWDIDYWGQGTLVTVS
VL: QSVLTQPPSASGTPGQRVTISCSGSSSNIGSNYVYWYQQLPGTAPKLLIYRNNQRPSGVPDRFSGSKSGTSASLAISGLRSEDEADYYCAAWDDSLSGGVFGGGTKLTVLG
Take B5: the binding result in experiment [1] and in experiment [2] was “binds” in each case.

B6: KD12-2A10 (antibody, V domains shown)
VH: EVQLVESGGGLVKPGGSLRLSCAASGFTFINAWMNWVRQAPGKGLEWVGLIKSKTDGGTIDYAAPVKGRFTISRDDSEKMLYLQMDSLKTEDTAVYYCTTMYGWKDARDYWGQGTLVTV
VL: EIVLTQSPGTLSLSPGERATLSCRASQSVSSNLAWYQQKPGQAPRVLIYGASSRATGIPDRFSGSRSGTDFTLTISRLEPEDFAVYYCQRYDNSPRTFGQGTKVEIK
In the case of B6, in experiment [1], the binding result was “binds”.

B7: KD5-2D7 (antibody, V domains shown)
VH: EVQLVESGGGLVQPGGSLGLSCAASGFTFSNYWMHWVRQAPGKGLVWVSRINSDGSDTSYADSVKGRFTISRDNAENTLYLHMSSLRAEDTAVYYCARELGYGDYGMDVWGKGTTVTVS
VL: QSVLTQPPSASGTPGQRVTISCSGSSSNIGSHSVIWYQQLPGTAPKLLVYSDNQRPSGVPDRFSGSKSGTSASLAISGLQSEDEADYYCAAWDDSLNHLHVVFGGGTKLTVL
As for B7, the binding result in experiment [1] and in experiment [2] was “binds” in each case.

B8: KD1-1H8 (antibody, V domains shown)
VH: EVQLVESGGGSVQPGGSLRLSCAASGFTFSNYWMHWVRQAPGKGLVWVSRLNIDGSNTFYADSVKGRFTISRDNAKNTLYLQMNSLRAEDTAVYYCVRGGSDSGDSVPFDLWGRGTLVTVS
VL: EIVMTQSPATLSVSPGERATLSCRASQSVSSNLAWYQQNPGQAPRLLIYGASTRATGIPARFSGSGSGTEFTLTISSLQSEDFAVYYCQHYNNWPFTFGQGTKVEIK
Turning to B8, the binding result in experiment [1] and in experiment [2] was “binds” in each case.

B9: KD9-2H6 (antibody, V domains shown)
VH: EVQLVESGGGLVKPGESLRLSCVGSGFTLTNAWMIWVRQTSGKGLEWVGRIKSKIDGGAIDYGAPVKGRFTISRDDTKNTVYLQMNSLQTDDTGVYFCTTDRYSTGYYGMDDYWGQGTLVTV
VL: SYELTQPPSVSVSPGQTATITCSGDKLGDKYSFWYQQKPGQSPVVVIYQDSKRPSGIPERFSGSNSGNTATLTISGTQAMDEADYYCQVWDTDSAVFGTGTRVTV
Take B9: the binding result in experiment [3] and in experiment [4] was “no binding” each time.

B10: KD7-1B5 (antibody, V domains shown)
VH: VQLVESGGGVVQPGRSLRLSCEASGFTFRSRAMHWVRQAPGKGLGWVAVIWYDGSNKYYADSVKGRFTISRDNSRNTLYLQMNSLRAEDTAVYYCARDLGSGFSLDYWGQGTLVTVS
VL: QSVLTQPPSVSAAPGQKVTISCSGSSSNIGNNYVSWYQQLPGTAPKLLIYDNNKRPSGIPDRFSGSKSGTSATLGITGLQTGDEADYYCGTWDSSLSAEVFGGGTKLTVLG
As for B10, the binding result in experiment [1] and in experiment [2] was “binds” in each case.

B11: KD10-1A8 (antibody, V domains shown)
VH: EVQLVESGGGLVQPGGSLRLSCAASGFTFSSYWMEWVRQAPGKGLVWVSHISSDGSVTRYVDSVKGRFTISRDNAKNTLYLQMNSLRAEDTGVYYCAKDLHWNALDVWGQGTMVTVS
VL: DIVMTQTPLSLSVTPGQPASISCKSSQSLLHNDGKTFLHWYLQKPGQSPQLLIYEVSSRFSGVPDRFSGSGSGTDFTLKISRVEAEDVGVYYCMQGIHLPPTFGGGTKVEIKR
Turning to B11, in experiment [1], the binding result is on record as “binds”.

B12: KD12-1G7 (antibody, V domains shown)
VH: EVQLVESGGGLVQPGGSLRLSCGASGFTVSGKYMTWARQAPEKGLEWVSAIYRGGGTYYADSVKGRFTISRDNSKNMLYLQMNSLRAEDTAVYYCGGSVMVSATDYWGQGTLVTV
VL: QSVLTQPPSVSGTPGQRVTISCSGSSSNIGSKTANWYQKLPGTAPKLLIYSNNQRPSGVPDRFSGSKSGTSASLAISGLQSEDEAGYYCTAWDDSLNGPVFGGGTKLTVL
For the molecule B12, the binding result in experiment [1] is given as “binds”.

B13: KD3-1C10 (antibody, V domains shown)
VH: EVQLVESGGGLVQPGGSLRLSCAASGFTFSNHWMHWVRQAPGKGLLWVSRIDTGGSTTNYADSVKGRFTISRDSAKNTVYLQMNSLRAEDTAVYYCARGGLFYYGMDVWGQGTTVTV
VL: EIVLTQSPGTLSLSPGERATLSCRASQTSSSTSLAWYQQKRGQAPRLLIYGASRRATGIPDRFSGSGSGTDFTLTISRLEPEDFAVYYCQQFSGSPAYTFGQGTKVEIK
Consider B13, for which the binding result in experiment [1] was “binds”.

B14: KD10-1G3 (antibody, V domains shown)
VH: EVQLVESGGGLVQPGGSLKLSCAASGFSFSGAAMHWVRQSSGRGLEWLGRIRSKTNDYATAYAESLHGRFTISRDDAKNTAYLQMNRLKSEDTAIYYCTTVLSKGDHAVWLGPWGPGTLVTV
VL: QPVLTQPPSSSASPGESARLTCTLPSDISVAASDIYWYQQKAGSPPNFLLYDPSDSHKGQDSGVPSRFSGSRDGSANSGFLLISGVQSEDEADYYCMVWPPNTVGVVFGGGTTLTV
In the case of B14, the binding result in experiment [1] and in experiment [2] was “binds” in each case.
